According to patent US20220363781A1:
Where two headings read alike, the source gives them in different places.

What was measured:
[1] = target: monkey TSLP-His (cynomolgus monkey, Macaca fascicularis) (cynomolgus monkey (Macaca fascicularis)); test: ELISA, monkey TSLP-His coated, antibody titrated, anti-human Fc-HRP
human TSLP-His (human) [2] = target: human TSLP-His (human) (UniProt Q969D9); test: BLI (Fortebio), antibody on ProA sensor, human TSLP 1.5625-100 nM, 1:1 model
human TSLP-His (human) [3] = target: human TSLP-His (human) (UniProt Q969D9); test: ELISA, human TSLP-His coated, antibody titrated
human TSLP-His (human) [4] = target: human TSLP-His (human) (UniProt Q969D9); test: BLI (Fortebio), antibody on ProA sensor, human TSLP titrated, 1:1 model
human TSLP-His (human) [5] = target: human TSLP-His (human) (UniProt Q969D9); test: cell-based or functional assay
[6] = target: monkey TSLP-His (cynomolgus monkey, Macaca fascicularis) (cynomolgus monkey (Macaca fascicularis)); test: BLI (Fortebio), antibody on ProA sensor, monkey TSLP 1.5625-100 nM, 1:1 model
human TSLP-His (human) [7] = target: human TSLP-His (human) (UniProt Q969D9); test: cell-based or functional assay; remark: listed apart in the source
FcRn (biotin-labeled) = test: BLI (Fortebio), biotin-FcRn on SA sensor, antibody 1.5625-200 nM, pH 6.0, 1:1 model
[8] = target: monkey TSLP-His (cynomolgus monkey, Macaca fascicularis) (cynomolgus monkey (Macaca fascicularis)); test: ELISA, monkey TSLP-His coated, antibody titrated
human TSLP-His (human) [9] = target: human TSLP-His (human) (UniProt Q969D9); test: ELISA, human TSLP-His coated, antibody titrated, anti-human Fc-HRP
human TSLP-His (human) [10] = target: human TSLP-His (human) (UniProt Q969D9); test: competitive ELISA, hIL7Rα-hTSLPR-hFc coated, hTSLP-His plus titrated antibody, anti-His-HRP
human TSLP-His (human) [11] = target: human TSLP-His (human) (UniProt Q969D9); test: ELISA, human TSLP-His coated on the plate, serially diluted antibody, HRP goat anti-human Fc, absorbance at 450 nm

monkey TSLP-His (cynomolgus monkey, Macaca fascicularis) (cynomolgus monkey (Macaca fascicularis)), sequence (chain, as listed by the source): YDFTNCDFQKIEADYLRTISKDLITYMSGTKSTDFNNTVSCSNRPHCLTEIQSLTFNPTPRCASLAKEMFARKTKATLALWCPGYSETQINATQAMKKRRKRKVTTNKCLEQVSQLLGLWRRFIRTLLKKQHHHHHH
human TSLP-His (human), sequence (Q969D9 other isoform, or with tags, fused parts or gaps limits assumed): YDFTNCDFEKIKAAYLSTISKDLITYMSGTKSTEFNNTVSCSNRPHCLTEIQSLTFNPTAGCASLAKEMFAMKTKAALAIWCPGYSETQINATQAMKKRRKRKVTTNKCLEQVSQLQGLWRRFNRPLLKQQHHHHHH
FcRn (biotin-labeled), sequence (P55899 24-297, chain 1 of 2): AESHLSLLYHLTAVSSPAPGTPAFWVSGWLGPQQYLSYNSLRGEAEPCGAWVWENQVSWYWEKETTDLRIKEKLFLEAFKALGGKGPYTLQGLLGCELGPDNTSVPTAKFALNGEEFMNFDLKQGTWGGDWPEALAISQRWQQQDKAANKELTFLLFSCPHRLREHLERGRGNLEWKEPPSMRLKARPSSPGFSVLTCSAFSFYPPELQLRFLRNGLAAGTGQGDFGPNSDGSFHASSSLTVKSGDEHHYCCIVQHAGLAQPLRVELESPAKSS
FcRn (biotin-labeled), sequence (P61769 21-119, chain 2 of 2, further chain): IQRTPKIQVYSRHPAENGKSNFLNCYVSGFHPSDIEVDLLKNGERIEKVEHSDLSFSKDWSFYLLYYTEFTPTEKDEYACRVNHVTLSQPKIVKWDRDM

With “Control antibody (control anti-TSLP antibody, chEMBL ID CHEMBL3707229)” the EC50 [1] was 0.19 nM, the Kd (human TSLP-His (human) [2]) was 0.8 nM and the EC50 (human TSLP-His (human) [3]) was 0.233 nM. It also gave a Kd (human TSLP-His (human) [4]) of 0.373 nM, an EC50, blocking human TSLP-induced proliferation of Ba/F3-hTSLPR-hIL7Rα cells (CCK8) (human TSLP-His (human) [5]) of 0.05 nM and an EC50, inhibition of human TSLP-induced PBMC secretion of MDC (human TSLP-His (human) [5]) of 0.00563 nM. For the same substance, the EC50, inhibition of human TSLP-induced PBMC secretion of TARC (human TSLP-His (human) [5]) was 0.51 nM, the hTSLP EC50, inhibition of the proliferation of Ba/F3-hTSLPR-hIL7Rα cells (human TSLP-His (human) [5]) was 0.041 nM and the Kd [6] was 1.15 nM. For the same substance, the hTSLP EC50, inhibition of the proliferation of Ba/F3-hTSLPR-hIL7Rα cells (human TSLP-His (human) [7]) was 0.57 nM, the Kd (FcRn (biotin-labeled)) was 11.2 nM and the EC50 [8] was 0.336 nM. It also gave an EC50 (human TSLP-His (human) [9]) of 1.4 nM, an IC50 (human TSLP-His (human) [10]) of 0.93 nM and an EC50 (read off the curve) (human TSLP-His (human) [11]) of 0.4 µg/mL.
